From patent publication US20120088237
Numbering of substitutions follows the chain as printed.

Legend:
[1] = system: T1, BstNI (Bacillus stearothermophilus); test: cleavage_in_vitro; details: 5mC at inner (second) C of CCWGG (dcm); NEB1 and NEB4 0.1; NEB2 0.5; NEB3 2; 60 C 1 h, crude lysate
T1 sequence: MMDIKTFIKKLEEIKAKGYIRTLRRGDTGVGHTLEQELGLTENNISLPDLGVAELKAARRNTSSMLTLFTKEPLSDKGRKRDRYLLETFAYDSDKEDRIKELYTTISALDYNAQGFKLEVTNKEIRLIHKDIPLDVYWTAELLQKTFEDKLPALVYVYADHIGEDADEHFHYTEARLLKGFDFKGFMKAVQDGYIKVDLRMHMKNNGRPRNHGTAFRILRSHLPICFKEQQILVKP

[2] = system: T2, BstNI R200C R200C (Bacillus stearothermophilus); test: cleavage_in_vitro; details: 5mC at inner (second) C of CCWGG (dcm); NEB1, NEB2 and NEB4 each 100; NEB3 10; 60 C 1 h, crude lysate
T2 sequence: T1 sequence with R200C

“CCWGG (double strand) [dcm+ plasmid pBC4 (C5mCWGG)]” gave a relative cleavage in vitro (fold (dcm+/dcm- cleavage)) [1] of 0.1 and a relative cleavage in vitro (fold (dcm+/dcm- cleavage)) [2] of 100.
